Where only a bound is given, the exact number is not on record here.

This note sets out measurements from CN114933651A (dated 2022).

The test deals with SARS-CoV-2RBD-hFc蛋白 (SARS-CoV-2; human).

B1: R14纳米抗体 (alpaca-derived nanobody R14, with C-terminal hexa-His tag) (VHH)
VHH: QVQLQESGGGLVQPGGSLRLSCAVSGFTLDYYAIGWFRQAPGKEREGVSCISSSDGSTSYADSVKGRFTISRDNAKNTVYLQMNSLKPEDTALYYCAATPATYYSGRYYYQCPAGGMDYWGQGTQVTVSS
On to B1, for which the Kd is under 0.1 nM.

In general, Kd refers to the free concentration of one partner at which half of the binding sites on the other are occupied at equilibrium, for simple one-to-one binding. Higher therefore signals lower affinity.
